The series concerns the target IGFBP3 (insulin-like growth factor-binding protein 3) (UniProt P17936 28-291). As to the kind of experiment: SPR. (In general: SPR reads the build-up and loss of mass on a sensor chip optically.)

Drawing on article doi:10.1101/2024.12.30.630826, this text covers Kd for two molecules.

Changes are numbered by the printed parent chain.

Broadly, the Kd is the concentration at which binding is half-saturated.

Chain of IGFBP3 (insulin-like growth factor-binding protein 3) (P17936 28-291): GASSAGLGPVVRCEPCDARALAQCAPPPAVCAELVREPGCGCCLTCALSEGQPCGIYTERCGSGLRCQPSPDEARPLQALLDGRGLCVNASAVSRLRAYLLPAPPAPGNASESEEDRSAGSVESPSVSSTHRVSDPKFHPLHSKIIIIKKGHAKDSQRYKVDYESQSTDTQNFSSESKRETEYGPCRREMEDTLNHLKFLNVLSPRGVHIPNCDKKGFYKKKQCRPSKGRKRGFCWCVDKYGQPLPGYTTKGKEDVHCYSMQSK

B1: RGen-aptamer-9 (structured_RNA)
RNA: UCCAGCACUCCACGCAUAACGAAGGGGGUUUGUUUGUUGGGGGGGGGGGAGGGGGAGUUAUGCGUGCUACCGUGAA
On to B1, for which the Kd was 6.06 nM.

B2: SELEX-derived wild-type aptamer (structured_RNA)
RNA: B1 RNA with A22G, A23C, G26U, U29G, U31G, U33G, G40U, G44A
The molecule B2 gave a Kd of 11.6 nM.
